# Experimental data: paper PMC11194070, “Despite the odds: formation of the SARS-CoV-2 methylation complex” (Nucleic Acids Research, 2024)
# Target: T1, SARS-CoV-2 nonstructural protein 10 (nsp10) (SARS-CoV-2, UniProt P0DTD1 4254-4392)
# T1 construct: also called 2H15N-nsp10; apo-nsp10
# Assay: MST
# Conditions: both partners purified
binder,measurement,value
"nsp14ExoN, nsp14 without the methyltransferase domain but retaining the exonuclease activity (domain or fragment) AENVTGLFKDCSKVITGLHPTQAPTHLSVDTKFKTEGLCVDIPGIPKDMTYRRLISMMGFKMNYQVNGYPNMFITREEAIRHVRAWIGFDVEGCHATREAVGTNLPLQLGFSTGVNLVAVPTGYVDTPNNTDFSRVSAKPPPGDQFKHLIPLMYKGLPWNVVRIKIVQMLSDTLKNLSDRVVFVLWAHGFELTSMKYFVKIGPERTCCLCDRRATCFSTASDTYACWHHSIGFDYVYNPFMIDVQQWGFTGNLQSNHDLYCQVHGNAHVASCDAIMTRCLAVHECFVKRVDWTIE",Kd,4.55 ± 2.68 µM
